Assay results as given in article PMC10104517.

B1: dsRNA (dsRNA)
RNA 1: GCUUUGAUUUCGUGCAUCUAUGGAG
RNA 2: CUCCAUAGAUGCACGAAAUCAAAGC
B2: dsDNA (dsDNA)
DNA 1: TTGACGAGGAAGTGTCTGTT
DNA 2: AACAGACACTTCCTCGTCAA

What was measured:
[1] = molecular target: T1, pI73R (African swine fever virus (ASFV-GZ, …, UniProt A0A2X0RU36 1-72)); assay: BLI
[2] = molecular target: T1, pI73R; assay: EMSA

Row | Binder | Kd [1] [nM] | binding result [2]
1 | B1 | 70 | 
2 | B2 | 100 | 
3 | GCUUUGAUUUCGUGCAUCUAUGGAG (ssRNA) [ssRNA] | 37.5 | 
4 | TTGACGAGGAAGTGTCTGTT (ssDNA) [ssDNA] | 113 | 
5 | GCUUUGCAGCCGCGGCUCGGUUUAG (ssRNA) [High-GC ssRNA] |  | binds
